Assay results as given in article PMC10732536.

Target: Spz, activated cystine-knot domain (Drosophila melanogaster)
Assay: non-reducing SDS-PAGE and immunoblot; proSpz cleaved by the activated proteases, in the absence of DTT (fig. S10); anti-Spz C106 antibody

Substance “Spz, activated cystine-knot domain (domain or fragment)” has a stoichiometry N of 2.
